In PMC11500106, “Characterization of Medusavirus encoded histones reveals nucleosome-like structures and a unique linker histone”:

Target: eH1.0 (Mus musculus, UniProt P10922 1-194)
Assay: fluorescence polarization; unit inferred from the titration (0-10 uM; fitted as EC50); FP: 20 mM Tris pH 7.5, 1 mM DTT, 1 mM EDTA, room temperature, 1 h, 10 nM DNA; reconstitution: salt-gradient dialysis 2 M to 50 mM NaCl
Settings: protein: recombinant; label: 5' 6-FAM; only one strand printed (Results call it a 35-mer)

Chain of eH1.0 (P10922 whole entry): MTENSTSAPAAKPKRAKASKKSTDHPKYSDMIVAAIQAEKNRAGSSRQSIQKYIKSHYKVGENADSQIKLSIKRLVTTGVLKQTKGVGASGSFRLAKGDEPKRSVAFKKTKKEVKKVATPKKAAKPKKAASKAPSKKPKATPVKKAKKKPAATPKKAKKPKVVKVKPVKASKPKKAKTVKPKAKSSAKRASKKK

## GCAGCTGGCACGACAGGTATGAATC (mixed) [FP 25-mer DNA]
  Kd: 18.1 nM
